Test results from US20190322762A1 (DEVELOPMENT CENTER FOR BIOTECHNOLOGY, published 2019).
Substitutions are numbered along the chain they refer to.

Assays:
BSA = target: T1, BSA (Bos taurus, UniProt P02769); experiment: ELISA, BSA as background
T1 construct: The sheet prints only 'BSA'; also called bovine serum albumin; BSA background

human ENO1 protein [1] = target: T2, human ENO1 protein (human, UniProt P06733 1-434); experiment: SPR, BIAcore 2000, antibody on the chip, ENO1 0.3125 nM to 40 nM as analyte, 25 degree C
T2 construct: Purified human ENO1 protein coated on ELISA plates or injected as SPR analyte; also called alpha-enolase; enolase-1
From the text: (§1) To know the binding kinetics difference among individual antibodies, surface plasmon resonance (SPR) measurement with a BIAcore 2000 (BIAcore. Inc., Piscataway, N.J.) was used as previously described (Karlsson & Falt, (1997) J. Immunol Methods 200:121-133). Carboxymethylated dextran biosensor chips (CM5, BIAcore Inc.) were activated with N-ethyl-N′-(3-dimethylaminopropyl)-carbodiimide hydrochloride (EDC) and N-hydroxysu-ccinimide (NHS) according to the supplier's instructions. Chimera EN10 mAb was diluted with 10 mM sodium acetate, pH 4.8, into 5 microgram/ml before injection at a flow rate of 20 micro L/minute to achieve approximately 100 response units (RU) of coupled protein followed by the injection of 1M ethanolamine to block unreacted groups. For kinetics measurements, two-fold serial dilutions of ENO1 (0.3125 nM to 40 nM) were injected in HBS-P Biacore running buffer provided by the manufacturer (BIAcore, Inc., Piscataway, N.J.) at 25 degree C. at a flow rate of 25 microL/min. and binding responses on the EN10 mAb were corrected by subtraction of responses on a blank flow cell. Association rates (kon or ka) and dissociation rates (koff or kd) were calculated using a simple one-to-one Langmuir binding model with separate fittings of kon and koff was used. (BIAcore™ Evaluation Software version 3.2).

human ENO1 protein [2] = target: T2, human ENO1 protein; experiment: told with the SPR results of FIG. 7B
From the text: as §1

human ENO1 protein [3] = target: T2, human ENO1 protein; experiment: ELISA, 400 ng/100 µL human ENO1 coated, antibody in 15 two-fold dilutions, four parameter logistic fit
Method: (§2) To determine the binding activity of each mutant antibody, 400 ng/100 μL of human ENO1 protein was coated on a 96-well ELISA overnight at 4° C. and the plate further was washed by PBS. The plate was blocked with 1% BSA (w/v) in PBS at room temperature for 1 hour, then washed again with 1×PBS. EN10.4, EN10.5, and humEN10 mAb antibodies were 2-fold serial diluted to 15 different concentrations and added to the plate at 37° C. for 1 hour. After the reaction was complete, the plate was washed 3 times with 1×PBS. A 1/8000 dilution of goat anti-human-HRP antibody was added and incubated at 37° C. for 1 hour, and then the plate washed 3 times with 1×PBS. The TMB substrate was added and reacted at room temperature for 30 minutes. The reaction was stopped by adding 1N HCl, and OD 450 was read to determine the activity. Every study was repeated three times. Data are presented as mean±SD. OD readings and concentrations of antibody were used to make a multiple scatter figure by Sigmaplot. The KD values were predicted by four parameter logistic fit.
(§3) There is no significant affinity difference among three different editions of hum EN10 mAb antibodies. […] Due to the structure similarity between cysteine and serine, EN10.5 is chosen to generate antibody production cell lines.

human ENO1 protein [4] = target: T2, human ENO1 protein; experiment: ELISA, human ENO1 coated on the plate; upper plateau of the four parameter logistic fit
Method: as §2, §3

human ENO1 protein [5] = target: T2, human ENO1 protein; experiment: ENO1 binding ELISA
[6] = target: T3, ENO1 mutant S310 to alanine (human, UniProt P06733 1-434); experiment: ELISA, ENO1 mutant A310 coated, EN10.5 mAb titrated, four parameter logistic fit
T3 construct: Expressed in E. coli and purified on Ni-agarose
Method: (§4) To determine the binding activity of each mutant protein, 400 ng/100 μL of human ENO1 protein or mutated ENO1 protein was coated on a 96-well ELISA plate and incubated overnight at 4° C. and the plate was washed with PBS. The plate was blocked with 1% BSA (w/v) in PBS at room temperature for 1 hour, then washed again with 1×PBS. A primary antibody (EN10.5 mAb) was 2-fold serial diluted to 15 different concentrations and added to the plate at 37° C. for 1 hour. After the reaction was done, the plate was washed 3 times with 1×PBS. A 1/8000 dilution of goat anti-mouse-HRP antibody was added and incubated at 37° C. for 1 hour, then the plate was washed 3 times with 1×PBS. Then, TMB substrate was added and the reaction was allowed to proceed at room temperature for 30 minutes. The reaction was stopped by adding 1N HCl and OD450 was read to determine the activity. Each study was repeated three times. Data are presented as mean±SD. OD readings and concentrations of antibody were used to make a multiple scatter plot using Sigmaplot™. The KD values were predicted by four parameter logistic fit.
(§5) Thus, the crystal structure of ENO1 was downloaded from protein data bank (pdb-entry: 2PSN) to analyze residue positions from this region. […] Every purified ENO1 mutant protein was analyzed for any KD changes by ENO1 binding in ELISA. […]

[7] = target: T4, ENO1 mutant Q298 to alanine (human, UniProt P06733 1-434); experiment: ELISA, ENO1 mutant A298 coated, EN10.5 mAb titrated, four parameter logistic fit
T4 construct: Expressed in E. coli and purified on Ni-agarose
Method: as §4, §5

[8] = target: T5, ENO1 mutant D299 to alanine (human, UniProt P06733 1-434); experiment: ELISA, ENO1 mutant A299 coated, EN10.5 mAb titrated, four parameter logistic fit
T5 construct: Expressed in E. coli and purified on Ni-agarose
Method: as §4, §5

[9] = target: T6, ENO1 mutant G312 to alanine (human, UniProt P06733 1-434); experiment: ELISA, ENO1 mutant A312 coated, EN10.5 mAb titrated, four parameter logistic fit
T6 construct: Expressed in E. coli and purified on Ni-agarose
Method: as §4, §5

[10] = target: T7, ENO1 mutant R327 to alanine (human, UniProt P06733 1-434); experiment: ELISA, ENO1 mutant A327 coated, EN10.5 mAb titrated
T7 construct: Expressed in E. coli and purified on Ni-agarose
Method: as §4, §5

A333 = target: T8, A333 (human); experiment: ELISA, ENO1 mutant A333 coated, EN10.5 mAb titrated, four parameter logistic fit
T8 construct: Sixth mutant of the alanine scan; It is named only on the sheets; the text lists five mutants
Method: as §4, §5

T2 sequence (P06733 whole entry): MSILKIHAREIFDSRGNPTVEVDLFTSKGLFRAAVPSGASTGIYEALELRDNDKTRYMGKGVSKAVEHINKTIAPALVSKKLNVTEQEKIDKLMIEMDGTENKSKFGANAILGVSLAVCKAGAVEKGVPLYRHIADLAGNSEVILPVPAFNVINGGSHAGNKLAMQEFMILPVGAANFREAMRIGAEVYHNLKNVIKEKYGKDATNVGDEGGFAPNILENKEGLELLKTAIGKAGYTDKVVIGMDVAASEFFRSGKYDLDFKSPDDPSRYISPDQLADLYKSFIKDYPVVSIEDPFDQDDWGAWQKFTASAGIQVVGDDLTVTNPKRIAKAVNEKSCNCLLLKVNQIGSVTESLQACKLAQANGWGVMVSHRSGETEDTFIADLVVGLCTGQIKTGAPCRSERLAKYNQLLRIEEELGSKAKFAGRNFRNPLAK
T3 sequence (P06733 other isoform, or with tags, fused parts or gaps mutant limits assumed): as the sequence (P06733 whole entry) above, with S310A counted along it
T1 sequence (P02769 25-607 limits assumed): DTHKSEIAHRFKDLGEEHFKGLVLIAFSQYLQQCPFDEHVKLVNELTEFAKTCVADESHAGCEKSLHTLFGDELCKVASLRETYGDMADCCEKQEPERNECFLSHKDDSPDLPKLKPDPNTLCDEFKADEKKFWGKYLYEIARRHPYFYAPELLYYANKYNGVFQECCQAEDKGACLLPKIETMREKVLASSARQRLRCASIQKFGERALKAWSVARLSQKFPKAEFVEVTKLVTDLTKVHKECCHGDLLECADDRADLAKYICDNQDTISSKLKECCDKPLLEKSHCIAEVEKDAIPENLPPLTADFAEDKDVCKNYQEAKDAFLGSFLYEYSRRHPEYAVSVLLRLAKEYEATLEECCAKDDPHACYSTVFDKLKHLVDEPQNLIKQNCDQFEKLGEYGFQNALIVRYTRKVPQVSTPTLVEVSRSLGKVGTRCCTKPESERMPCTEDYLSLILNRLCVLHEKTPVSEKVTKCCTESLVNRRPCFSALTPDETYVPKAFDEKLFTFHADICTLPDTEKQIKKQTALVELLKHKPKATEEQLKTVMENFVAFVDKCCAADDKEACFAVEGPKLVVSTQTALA
T4 sequence (P06733 other isoform, or with tags, fused parts or gaps mutant limits assumed): as the sequence (P06733 whole entry) above, with Q298A counted along it
T6 sequence (P06733 other isoform, or with tags, fused parts or gaps mutant limits assumed): as the sequence (P06733 whole entry) above, with G312A counted along it
T7 sequence (P06733 other isoform, or with tags, fused parts or gaps mutant limits assumed): as the sequence (P06733 whole entry) above, with R327A counted along it
T5 sequence (P06733 other isoform, or with tags, fused parts or gaps mutant limits assumed): as the sequence (P06733 whole entry) above, with D299A counted along it

B1: EN10 mAb (antibody, V domains shown)
VH: EVQLQQSGPELVKPGASVKMSCKASGYTFTSCVMNWVKQKPGQGLEWIGYINPYNDGTKYNEKFKGKATLTSDKSSSTAYMELSSLTSEDSAVYYCAREGFYYGNFDNWGQGTTLTVSS
VL: DIQMTQSPASLSASVGETVTITCRASENIYSYLTWYQQKQGKSPQLLVYNAKTLPEGVPSRFSGSGSGTQFSLKINSLQPEDFGSYYCQHHYGTPYTFGGGTKLEITR
notes: Mouse monoclonal antibody purified from hybridoma ascites; also called anti-human ENO1 antibody EN10 mAb; EN10 mAb antibody
binding result (BSA): no binding

B2: hum EN10 mAb IMGT (antibody, V domains shown)
VH: QVQLVQSGAEVKKPGASVKVSCKASGYTFTSCVMNWVRQAPGQGLEWMGYINPYNDGTKYNEKFKGRVTMTTDTSTSTAYMELRSLRSDDTAVYYCAREGFYYGNFDNWGQGTLVTVSS
VL: DIQMTQSPSSLSASVGDRVTITCRASENIYSYLTWYQQKPGKAPKLLIYNAKTLPEGVPSRFSGSGSGTDFTLTISSLQPEDFATYYCQHHYGTPYTFGQGTKLEIKR
notes: Humanized antibody, human IgG; also called Hum EN10 IMGT; hum ENO10mAb IMGT
Kd (human ENO1 protein [1]): 0.219 nM | Kd (human ENO1 protein [2]): ~0.203 nM | Kd (human ENO1 protein [3]): 0.163 nM | Max. (human ENO1 protein [4]): 2.99 O.D 450 nm | Kd (human ENO1 protein [5]): 0.0365 nM

B3: hum EN10 mAb 4D5 (antibody, V domains shown)
VH: EVQLVESGGGLVQPGGSLRLSCAASGYTFTSCVMNWVRQAPGKGLEWVAYINPYNDGTKYNEKFKGRFTISRDDSKNTLYLQMNSLRAEDTAVYYCAREGFYYGNFDNWGQGTLVTVSS
VL: B2 VL
notes: Humanized antibody, human IgG; also called hum ENO10mAb 4D5; hum EN10 mAb 45D
Kd (human ENO1 protein [1]): 0.5 nM

B4: EN10.5 (antibody, V domains shown)
VH: B2 VH with C32S
VL: B2 VL
notes: same light chain as humEN10 mAb; human IgG; also called EN10.5 mAb; mAb EN10.5
Kd [6]: 0.217 nM | Kd [7]: 0.238 nM | Kd [8]: 64.3 nM | Kd [9]: 0.2 nM | Kd (human ENO1 protein [3]): 0.157 nM | binding result [10]: no binding (tested: about 1e-7 M) | Max. (human ENO1 protein [4]): 2.97 O.D 450 nm | Kd (A333): 0.21 nM

B5: EN10.4 (antibody, V domains shown)
VH: B2 VH with C32A
VL: B2 VL
notes: same light chain as humEN10 mAb; human IgG from FreeStyle293 cells; also called EN10.4 mAb; alanine mutant of humEN10 mAb antibody
Kd (human ENO1 protein [3]): 0.14 nM | Max. (human ENO1 protein [4]): 2.94 O.D 450 nm
